From patent US20090012268A1 (B R A H M S, published 2009)
Where “and” joins values, the source holds several entries; their conditions need not be identical. Equal entries are not always repeated.

Legend:
[1] = biological target: human TSH receptor expressed on cells (human, UniProt P16473 21-764); test: cell-based or functional assay
[2] = biological target: mouse TSHr (mouse, UniProt P47750 22-764); test: cell-based or functional assay
[3] = biological target: T1, recombinant human TSHr preparation immobilized on coated tubes (human, UniProt P16473 21-764, limits assumed); test: displacement of 50% of 125I-labeled TSH from TSHr coated tubes
T1 construct: also called hTSHr coated tubes; TSHr coated tubes
Description: Selected mAbs and Fabs (generated after papain digestion) were purified by Sepharose-protein A affinity chromatography (ImmunoPure™ Fab preparation Kit, Pierce, Perbio Science, Belgium) and tested for their ability to stimulate cAMP production using JP26 CHO cells in normal isotonic medium (see above). For TBII activity determination, different amounts of antibodies were added in 250 μl of buffer A (20 mM Hepes-NaOH, pH 7.5, 50 mM NaCl, 1% BSA, 10% glycerol, 2 mg/ml mouse IgG) to hTSHr coated tubes. […] The tubes were incubated for 2 h at room temperature, washed four times with 2 ml washing buffer (8 mM Tris-Hl, 60 mM NaCl, 0.02% Tween-20, pH 7.5), and bound radioactivity was counted.

[4] = biological target: T1, recombinant human TSHr preparation …; test: saturation with acridinium ester labelled antibody on hTSHr coated tubes; Kd1 of a biphasic curve
Description: (§1) 5 ng (−200 000 RLU) of acridinium ester labelled monoclonal antibody (20) and different amounts of unlabeled antibodies were added in 0.3 ml of buffer A to TSHr coated tubes. Tubes were incubated for 24 h at room temperature, washed four times with 2 ml washing buffer, and RLU were measured in a luminometer.
(§2) The purified antibodies were subsequently labelled with acridinium ester and used in saturation experiments on hTSHr coated tubes.

[5] = biological target: T1, recombinant human TSHr preparation …; test: saturation with acridinium ester labelled antibody on hTSHr coated tubes; Kd2 of a biphasic curve
Description: as §1, §2

Chain of mouse TSHr (P47750 22-764): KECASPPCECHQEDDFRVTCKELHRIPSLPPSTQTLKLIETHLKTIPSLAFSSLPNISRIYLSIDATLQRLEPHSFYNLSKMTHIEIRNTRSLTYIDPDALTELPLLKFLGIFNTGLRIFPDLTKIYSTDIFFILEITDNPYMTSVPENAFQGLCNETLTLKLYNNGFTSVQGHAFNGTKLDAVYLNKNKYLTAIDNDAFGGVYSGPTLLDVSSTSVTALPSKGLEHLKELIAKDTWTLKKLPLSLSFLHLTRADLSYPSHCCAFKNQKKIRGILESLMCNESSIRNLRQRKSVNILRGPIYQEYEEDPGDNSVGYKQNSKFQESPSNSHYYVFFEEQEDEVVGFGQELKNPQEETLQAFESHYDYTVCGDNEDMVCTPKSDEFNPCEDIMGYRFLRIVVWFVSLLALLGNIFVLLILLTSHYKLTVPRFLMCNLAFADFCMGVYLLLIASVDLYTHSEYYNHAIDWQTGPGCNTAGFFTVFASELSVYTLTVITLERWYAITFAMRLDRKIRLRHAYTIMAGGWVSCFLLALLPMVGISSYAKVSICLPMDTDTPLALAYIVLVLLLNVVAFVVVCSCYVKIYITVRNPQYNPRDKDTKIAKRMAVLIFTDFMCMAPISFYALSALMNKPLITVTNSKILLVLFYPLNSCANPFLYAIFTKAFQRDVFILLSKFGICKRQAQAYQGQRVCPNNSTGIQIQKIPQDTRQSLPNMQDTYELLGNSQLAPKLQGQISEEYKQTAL

EC50 of cAMP production in MT3 cells, normal-salt medium [2] | EC50 of cAMP production in JP26 cells (Fab) [1] | Binder | also measured
1.3 nM | – | IRI-SAb2 (antibody, IgG2a, V domains shown, Mouse monoclonal IgG2a from a hybridoma; also called mAb IRI-SAb2; DSM ACC2664) VH: SCKASGYSFTAYTMNWVKQSHGKNLEWIGLINPFNGGTNYNQKFEGKATLTVDKSSTTAYMELLSLTSEDSAVYYCARRVWDYFDYWGQGTSLTVSS VL: EGSITCKASQNVGTNVAWYQQKGGQSLELLIYGASNRHTGVPDRFTGRGSGTDFTLTITNVQSEDMTNYFCEQYSRYPLTFGAG | EC50 of cAMP production in JP26 cells, normal salt medium (IgG) [1]: 2.75 nM; IC50 [3]: 0.3 µg/mL and 2 nM; Kd [4]: 0.07 nM; Kd [5]: 1.23 nM
– | 74 nM | IRI-SAb3 Fab fragment (Fab, V domains shown) VH: SCKASGYSFTAYTMNWVKQSHGYNLEWIGLINPYNGGANYNQKFKGKATLTVDKSSSTAYMELLSLTSEDSAVYYCARRVWDYFDYWGQGTTLTVSS VL: EGSITCKASQNVGTNVAWYQQKVGQSLELLIYGASSRHTGVPDRFTGSGSGTDFTLTITDVQSEDMTNYFCEQYSSYPLTFGAG | –
– | 1.2 nM | IRI-SAb2 Fab fragment (Fab, V domains shown) VH: SCKASGYSFTAYTMNWVKQSHGKNLEWIGLINPFNGGTNYNQKFEGKATLTVDKSSTTAYMELLSLTSEDSAVYYCARRVWDYFDYWGQGTSLTVSS VL: EGSITCKASQNVGTNVAWYQQKGGQSLELLIYGASNRHTGVPDRFTGRGSGTDFTLTITNVQSEDMTNYFCEQYSRYPLTFGAG | –
3.8 nM | – | IRI-SAb3 (antibody, IgG1, V domains shown) VH: SCKASGYSFTAYTMNWVKQSHGYNLEWIGLINPYNGGANYNQKFKGKATLTVDKSSSTAYMELLSLTSEDSAVYYCARRVWDYFDYWGQGTTLTVSS VL: EGSITCKASQNVGTNVAWYQQKVGQSLELLIYGASSRHTGVPDRFTGSGSGTDFTLTITDVQSEDMTNYFCEQYSSYPLTFGAG | –
